pKd: −log10 of the molar value.
How the values were obtained:
[1] = target: GLP-1 receptor on CHO-K1/GLP1/Gal5 cells; assay: cell-based or functional assay
[2] = target: GLP-1 receptor (covalently immobilized to the Biacore biosensor surface); assay: Biacore SPR, GLP-1 receptor covalently immobilized, peptide injected

EC50 of intracellular calcium mobilization (Calcium-4, FlexStation, RFU) [1] [µM] | pKd [2] | Substance
0.336 | 5.80 | 5 kDa-PEG-Cys(37)-GLP-1 (from UniProt P01275 27-56) (peptide)
 | 6.00 | GLP-1 (7-36) (from UniProt P01275 27-56) (peptide)

— US20160151510A1
